The results in this text go back to patent publication US20070225231A1.

In assay [1] the target is peroxidase-anti-peroxidase (PAP) immune complexes (UniProt P00433). In words: reverse ELISA: rabbit PAP pre-incubated with soluble histone; competitor: immobilised histone. In general terms: An ELISA detects its analyte on a solid surface through an enzyme-linked reagent.
Assay [2] addresses myelin basic protein (MBP) (Sigma). In words: reverse ELISA: IgG PAP binding to MBP, no inhibitor.
In assay [3] the target is human C1q (human) (UniProt P02745). In words: reverse ELISA: PAP on C1q-coated plate, no inhibitor.
Assay [4] has the same target. The description is as above. The source holds these as a separate data set.
The next assay has as its target highly purified FcγIIa (UniProt P12318). Kind of assay: reverse ELISA: PAP on FcγIIa-coated plate, no inhibitor.
In the next assay the target is highly purified FcγIII. Kind of assay: reverse ELISA: PAP on FcγIII-coated plate, no inhibitor.
The target in another assay is highly purified FcγIIb (UniProt P31994). In words: reverse ELISA: PAP on FcγIIb-coated plate, no inhibitor.
Assay [5] concerns the target histone (Sigma). In words: reverse ELISA: IgG PAP binding to histones, no inhibitor.
Assay [6] deals with myelin basic protein (MBP) (Sigma). In words: reverse ELISA: rabbit PAP on MBP-coated plate, no inhibitor.
The target of assay [7] is histone (Sigma). In words: reverse ELISA: rabbit PAP on histone-coated plate, no inhibitor.
In assay [8] the target is whole human IgG4 (human) [IgG part: P01861]. Kind of assay: reverse ELISA: immune complexes on IgG4-coated plate, no inhibitor.
For assay [9], the target named is peroxidase-anti-peroxidase (PAP) immune complexes (UniProt P00433). Kind of assay: reverse ELISA: rabbit PAP pre-incubated with soluble MBP; competitor: immobilised MBP.
Assay [10] shares this target. In words: reverse ELISA: PAP pre-incubated with peptide; competitor: immobilised RF.
For assay [11] the target is unchanged. In words: reverse ELISA: immune complexes with peptide; competitor: immobilised IgG4.
For assay [12] the target is unchanged. Kind of assay: reverse ELISA: PAP pre-incubated with peptide; competitor: immobilised FcγIII.
The target is the same in assay [13]. Kind of assay: reverse ELISA: PAP pre-incubated with peptide; competitor: immobilised FcγIIa.
Assay [14] has the same target. Kind of assay: reverse ELISA: PAP pre-incubated with peptide; competitor: immobilised FcγIIb.
The target is the same in assay [15]. In words: reverse ELISA: rabbit PAP pre-incubated with peptide; competitor: immobilised MBP.
Assay [16] has the same target. In words: reverse ELISA: rabbit PAP pre-incubated with peptide; competitor: immobilised histone.
Assay [17] concerns the target human monomeric IgG (Research Diagnostics). In words: RF test kit: peptide pre-incubated with human monomeric IgG, washed, then RF; competitor: RF.
Assay [18] addresses peroxidase-anti-peroxidase (PAP) immune complexes (UniProt P00433). Kind of assay: reverse ELISA: PAP pre-incubated with peptide, then on C1q-coated plate; competitor: immobilised C1q.
Assay [19] has the same target. In words: reverse ELISA: PAP pre-incubated with peptide; competitor: immobilised C1q.
The target is the same in assay [20]. Kind of assay: reverse ELISA: rabbit PAP pre-incubated with peptide; competitor: immobilised RF.

Like-named read-outs stand apart in the source and are kept apart here. Positions of bridges follow the written chain, without caps; N, C: chain ends. No end group written: not given here.

Sequence of peroxidase-anti-peroxidase (PAP) immune complexes (UniProt P00433) (P00433 31-338, one chain of several): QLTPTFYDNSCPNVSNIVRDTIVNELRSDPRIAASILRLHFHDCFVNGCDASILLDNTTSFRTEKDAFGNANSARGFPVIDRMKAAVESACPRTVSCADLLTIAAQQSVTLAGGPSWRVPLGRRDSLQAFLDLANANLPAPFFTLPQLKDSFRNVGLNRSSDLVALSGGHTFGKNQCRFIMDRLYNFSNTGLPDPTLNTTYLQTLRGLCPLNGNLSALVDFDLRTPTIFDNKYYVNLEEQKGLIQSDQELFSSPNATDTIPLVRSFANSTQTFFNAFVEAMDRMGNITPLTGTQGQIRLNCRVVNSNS
Sequence of human C1q (human) (P02745 23-245 limits assumed, chain 1 of 3): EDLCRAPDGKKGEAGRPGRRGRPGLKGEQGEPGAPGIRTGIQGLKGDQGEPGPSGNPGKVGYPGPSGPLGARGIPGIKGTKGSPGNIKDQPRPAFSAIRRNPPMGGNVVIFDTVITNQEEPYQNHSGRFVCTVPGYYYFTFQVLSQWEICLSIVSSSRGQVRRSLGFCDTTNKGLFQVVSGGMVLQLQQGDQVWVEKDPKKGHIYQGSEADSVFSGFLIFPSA
Sequence of human C1q (human) (P02746 28-253 limits assumed, chain 2 of 3, further chain): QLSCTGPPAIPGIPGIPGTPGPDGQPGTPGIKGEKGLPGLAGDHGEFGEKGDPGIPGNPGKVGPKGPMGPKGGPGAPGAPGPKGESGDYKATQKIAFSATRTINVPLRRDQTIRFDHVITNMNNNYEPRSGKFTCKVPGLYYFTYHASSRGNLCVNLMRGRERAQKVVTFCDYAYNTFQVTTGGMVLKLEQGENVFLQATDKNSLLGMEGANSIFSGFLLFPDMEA
Sequence of human C1q (human) (P02747 29-245 limits assumed, chain 3 of 3, further chain): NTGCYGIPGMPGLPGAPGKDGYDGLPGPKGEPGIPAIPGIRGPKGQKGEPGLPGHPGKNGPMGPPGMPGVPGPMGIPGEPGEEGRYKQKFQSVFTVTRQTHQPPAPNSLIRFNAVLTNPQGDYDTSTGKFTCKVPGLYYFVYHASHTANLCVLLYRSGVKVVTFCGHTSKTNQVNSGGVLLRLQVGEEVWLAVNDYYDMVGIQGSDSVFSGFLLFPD
Sequence of highly purified FcγIIb (P31994 43-217 limits assumed): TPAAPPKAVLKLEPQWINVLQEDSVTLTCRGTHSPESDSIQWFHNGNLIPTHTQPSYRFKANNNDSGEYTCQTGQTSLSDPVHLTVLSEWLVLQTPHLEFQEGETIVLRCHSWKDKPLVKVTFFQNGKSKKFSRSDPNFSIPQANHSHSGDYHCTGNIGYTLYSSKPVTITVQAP
Sequence of highly purified FcγIIa (P12318 34-217 limits assumed): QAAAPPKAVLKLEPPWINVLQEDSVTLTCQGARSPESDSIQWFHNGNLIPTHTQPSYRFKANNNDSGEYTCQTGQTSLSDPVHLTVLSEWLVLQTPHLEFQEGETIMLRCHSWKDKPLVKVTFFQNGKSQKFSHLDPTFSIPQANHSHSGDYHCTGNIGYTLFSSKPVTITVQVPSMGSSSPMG
Sequence of whole human IgG4 (human) [IgG part: P01861] (P01861 other isoform, or with tags, fused parts or gaps): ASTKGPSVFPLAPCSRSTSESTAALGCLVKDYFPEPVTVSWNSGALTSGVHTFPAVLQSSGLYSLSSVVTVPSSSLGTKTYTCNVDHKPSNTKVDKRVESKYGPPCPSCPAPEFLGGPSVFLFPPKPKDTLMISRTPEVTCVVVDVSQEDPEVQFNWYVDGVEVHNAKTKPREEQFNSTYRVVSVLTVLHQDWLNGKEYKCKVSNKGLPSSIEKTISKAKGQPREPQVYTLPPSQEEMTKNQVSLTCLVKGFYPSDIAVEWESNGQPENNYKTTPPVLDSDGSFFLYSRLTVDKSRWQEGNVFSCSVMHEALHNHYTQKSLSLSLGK

For the molecule histone (Sigma), the OD 405 nm in assay [1] came to 0.057 OD.

Regarding “peroxidase-anti-peroxidase (PAP) immune complexes (from UniProt P00433 31-338)”, the OD 405 nm is 2.34 OD in [2]; 0.467 OD in the assay with human C1q (human) [3]; 2.35 OD in the assay with human C1q (human) [4]; 1.6 OD with highly purified FcγIIa; 1.59 OD with highly purified FcγIII; 1.39 OD with highly purified FcγIIb. Moreover, the OD 405 nm with histone (Sigma) [5] was 2.11 OD; in [6], 1.03 OD; with histone (Sigma) [7], 1.27 OD; in assay [8], 0.716 OD. Also, the OD 450 nm with highly purified FcγIIa, with highly purified FcγIII and in the assay with highly purified FcγIIb was 3.6 OD each time.

The molecule myelin basic protein (MBP) (Sigma) showed an OD 405 nm in assay [9] of 0.139 OD.

B1: … (SEQ ID NO:42) (peptide)
peptide: DCAWHLGELAACT
modifications: cyclized by a disulfide bond between the two cysteine residues
For the molecule B1, the OD 405 nm in assay [10] worked out at 0.622 OD; in [11], 0.557 OD; in assay [15], 0.706 OD; in assay [16], 0.729 OD; in [17] it was 1.4 OD. Besides, the results for the OD 450 nm in assay [12], in assay [13] and in assay [14] were 1.34 OD, 1.48 OD and 1.07 OD, respectively.

B2: … (SEQ ID NO:41) (peptide)
peptide: PCARHLGELVWCT
modifications: disulfide 2-12 (inferred)
With B2, the OD 405 nm in assay [10] worked out at 0.106 OD; in [11], 0.129 OD; in assay [15] it was 0.489 OD; in [16], 0.444 OD; in assay [17] it was 1.32 OD; in assay [18], 0.205 OD. Further, the OD 450 nm in [12] worked out at 1.6 OD; in assay [13] it was 1.15 OD; in [14], 1.21 OD.

B3: … (printed in Table 8 with SEQ ID NO:14) (peptide)
peptide: APPDCARHLGELVWCT
modifications: cyclized by a disulfide bond between the two cysteine residues
B3 gave an OD 405 nm in assay [11] of 0.107 OD.

B4: … (SEQ ID NO:3) (peptide)
peptide: DCAFHLGELVWCT
modifications: cyclized by a disulfide bond between the two cysteine residues
In the case of B4, the OD 405 nm in assay [19] turned out to be 0.859 OD; in assay [12], 0.81 OD; in assay [13], 0.66 OD; in [14], 0.51 OD; in assay [20], 0.267 OD; in assay [17] it was 0.962 OD.

B5: … (SEQ ID NO:40) (peptide)
peptide: DCAAHLGELAACT
modifications: cyclized by a disulfide bond between the two cysteine residues
With B5, the OD 450 nm in [12] is 2.41 OD; in [13] it was 2.43 OD; in [14], 2.26 OD. Besides, the OD 405 nm in assay [17] stood at 1.42 OD; in assay [18], 0.458 OD.

B6: … (SEQ ID NO:4) (peptide)
peptide: DCARHLGELVWCT
modifications: disulfide 2-12 (inferred)
Regarding B6, the OD 405 nm was determined as 0.109 OD in assay [10]; 0.096 OD in assay [11]; 0.473 OD in assay [15]; 0.363 OD in [16]; 1.23 OD in [17]; 0.193 OD in assay [18]. Further, the OD 450 nm amounted to 2.53 OD in assay [12], 2.54 OD in [13] and 1.95 OD in assay [14].

B7: … (SEQ ID NO:5) (peptide)
peptide: RCARHLGELVWCT
modifications: disulfide 2-12 (inferred)
For the molecule B7, the OD 405 nm in [10] was determined as 0.152 OD; in assay [11], 0.191 OD; in assay [15] it was 0.569 OD; in assay [16], 0.359 OD; in [17], 1.31 OD; in assay [18], 0.247 OD. Moreover, the OD 450 nm in [12] came to 3.5 OD; in assay [13], 3.4 OD; in [14], 3.28 OD.
